Experiments:
[1] = molecular target: T1, human CD3 expressed in Jurkat cells (human, UniProt P07766 23-207; P04234 22-171; P20963 22-164; P09693 23-182); assay: flow cytometry, 70 nM antibody on Jurkat/NFAT-luc cells, No IgE
T1 construct: Endogenous CD3 complex of Jurkat T cells; also called hCD3; Jurkat/NFAT-luc cells
Description: (§1) For flow cytometry analysis, HEK293, HEK293/hFcεR1α/hFcεR1β/hFcεR1γ and HEK293/mf FcεR1α/hFcεR1β/hFcεR1γ cells were collected after dissociation using Enzyme Free Dissociation Buffer (Millipore Cat# S-004), and the cells were pre-incubated with or without 70 nM human IgE, for 30 minutes on ice in FACS buffer (PBS, without Ca⁺⁺ and Mg⁺⁺, (Irvine Scientific, Cat#9240) containing 2% FBS). Jurkat/NFAT-luc cells were also collected. The antibodies at the concentration of 70 nM were then added to 1×10⁶ cells/well of each cell type at 4° C. for 30 minutes. […] Cells were fixed using BD CytoFix™ (Becton Dickinson, Cat. #554655) and analyzed on Accuri™ C6 (BD) or CytoFLEX Flow cytometer (Beckman Coulter). Unstained and secondary antibody alone controls were also tested for all cell lines and a sample was evaluated for viability using the Far Red Fluo viability dye (Thermo Fisher, Cat#L10120) according to the manufacturer's protocol. The results were analyzed using FlowJo software (version 10.0.8, FlowJo) to determine the geometric means of fluorescence for viable cells and the binding ratio was calculated with the mean fluorescence intensity (MFI) of the experimental condition normalized by the MFI of the unstained respective cells.

[2] = molecular target: T2, human FcεR1α expressed on cells (human, UniProt P12319 26-257); assay: flow cytometry, 70 nM antibody on HEK293/hFcεR1α/hFcεR1β/hFcεR1γ cells, No IgE
T2 construct: whole, on cells; Co-expressed with human FcεR1β (amino acids 1-244 of Uniprot Q01362-1) and FcεR1γ (amino acids 1-86 of Uniprot P30273-1); also called hFcεR1α; HEK293/hFcεR1α/hFcεR1β/hFcεR1γ cells
T2 sequence (looked up): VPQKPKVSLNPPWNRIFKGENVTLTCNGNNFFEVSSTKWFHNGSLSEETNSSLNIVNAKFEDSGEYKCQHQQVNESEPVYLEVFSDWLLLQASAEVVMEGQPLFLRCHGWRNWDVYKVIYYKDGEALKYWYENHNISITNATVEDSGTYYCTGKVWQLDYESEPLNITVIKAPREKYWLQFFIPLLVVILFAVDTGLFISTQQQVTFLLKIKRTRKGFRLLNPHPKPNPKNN
Description: as §1

[3] = molecular target: T2, human FcεR1α expressed on cells; assay: cell-based or functional assay
hFcεR1α.MMH [4] = molecular target: T3, hFcεR1α.MMH (human); assay: SPR (Biacore 8k), antibody captured on anti-human Fc, hFcεR1α.MMH injected, 37°C
T3 construct: also called ectodomain of human FcεR1α with C-term myc-myc-6×His tag
T3 chain: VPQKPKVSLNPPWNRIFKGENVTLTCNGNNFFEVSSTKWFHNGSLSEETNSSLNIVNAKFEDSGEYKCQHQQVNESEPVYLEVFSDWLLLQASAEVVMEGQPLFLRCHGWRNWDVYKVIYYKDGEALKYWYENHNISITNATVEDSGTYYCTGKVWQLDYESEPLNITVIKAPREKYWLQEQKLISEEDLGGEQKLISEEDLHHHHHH
Description: (§2) Equilibrium dissociation constants (KD) for human or cynomolgus FcεR1α ectodomain binding to purified anti-FcεR1α monoclonal antibodies (mAbs) and CD3×FcεR1α bispecific antibodies (bsAbs) were determined using a real-time surface plasmon resonance biosensor (SPR-Biacore), Biacore 8k. All binding studies were performed in 10 mM HEPES, 150 mM NaCl, 3 mM EDTA, and 0.05% v/v surfactant Tween-20, pH 7.4 (HBS-ET) running buffer at 25° C. and 37° C.
(§3) The Biacore CM4 sensor surface was first derivatized by amine coupling with a monoclonal mouse anti-human Fc antibody to capture approximately 500-900 RUs anti-FcεR1α monoclonal antibodies or anti-CD3×FcεR1α bispecific monoclonal antibodies. 1 RU (response unit) represents 1 pg of protein per mm², as defined by the manufacturer. The ectodomain of human and cynomolgus FcεR1α reagents were expressed with a C-term myc-myc-6×His tag-hFcεR1α.MMH (SEQ ID NO: 57) and mfFcεR1α.MMH (SEQ ID NO: 58). Different concentrations of FcεR1α reagents were prepared in HBS-ET running buffer (600 nM-7.4 nM; serially diluted by 3-fold) and injected over anti-human Fc captured anti-FcεR1α monoclonal antibodies or anti-CD3×FcεR1α bispecific monoclonal antibodies surfaces for 1 minute at a flow rate of 30 μL/minute. The dissociation of bound FcεR1α reagents was monitored for 4 minutes in HBS-ET running buffer. Association (kₐ) and dissociation (kd) rate constants were determined by fitting the real-time binding sensorgrams to a 1:1 binding model with mass transport limitation using Biacore 8k evaluation software. Binding dissociation equilibrium constants (KD) and dissociative half-lives (t½) were calculated from the kinetic rate constants as: […]

mfFcεR1α.MMH [5] = molecular target: T4, mfFcεR1α.MMH (cynomolgus (Macaca fascicularis)); assay: SPR (Biacore 8k), antibody captured on anti-human Fc, mfFcεR1α.MMH injected, 37°C
T4 construct: also called mfFceR1a.MMH; ectodomain of cynomolgus FcεR1α with C-term myc-myc-6×His tag
T4 chain: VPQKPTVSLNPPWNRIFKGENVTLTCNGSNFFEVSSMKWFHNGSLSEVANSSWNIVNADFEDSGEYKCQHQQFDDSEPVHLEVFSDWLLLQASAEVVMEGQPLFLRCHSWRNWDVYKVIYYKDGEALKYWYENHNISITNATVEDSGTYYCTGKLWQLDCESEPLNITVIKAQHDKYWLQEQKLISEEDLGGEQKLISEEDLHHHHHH
Description: as §2, §3

[6] = molecular target: T2, human FcεR1α expressed on cells; assay: cell-based or functional assay; remark: listed apart in the source
hFcεR1α.MMH [7] = molecular target: T3, hFcεR1α.MMH; assay: SPR (Biacore 8k), antibody captured on anti-human Fc, hFcεR1α.MMH injected, 25°C
Description: as §2, §3

[8] = molecular target: T5, monkey (cynomolgus) FcεR1α expressed on cells (cynomolgus); assay: flow cytometry, 70 nM antibody on HEK293/mfFcεR1α/hFcεR1β/hFcεR1γ cells pre-incubated with 70 nM human IgE
T5 construct: range 4-260; On HEK293 cells, co-expressed with human FcεR1β and FcεR1γ; also called mfFcεR1α; HEK293/mfFcεR1α/hFcεR1β/hFcεR1γ cells
Description: as §1

[9] = molecular target: T2, human FcεR1α expressed on cells; assay: flow cytometry, 70 nM antibody on HEK293/hFcεR1α/hFcεR1β/hFcεR1γ cells pre-incubated with 70 nM human IgE
Description: as §1

mfFcεR1α.MMH [10] = molecular target: T4, mfFcεR1α.MMH; assay: SPR (Biacore 8k), antibody captured on anti-human Fc, mfFcεR1α.MMH injected, 25°C
Description: as §2, §3

[11] = molecular target: T1, human CD3 expressed in Jurkat cells; assay: cell-based or functional assay
[12] = molecular target: T5, monkey (cynomolgus) FcεR1α expressed on …; assay: flow cytometry, 70 nM antibody on HEK293/mfFcεR1α/hFcεR1β/hFcεR1γ cells, No IgE
Description: as §1

T1 sequence (P07766 23-207 limits assumed, chain 1 of 4): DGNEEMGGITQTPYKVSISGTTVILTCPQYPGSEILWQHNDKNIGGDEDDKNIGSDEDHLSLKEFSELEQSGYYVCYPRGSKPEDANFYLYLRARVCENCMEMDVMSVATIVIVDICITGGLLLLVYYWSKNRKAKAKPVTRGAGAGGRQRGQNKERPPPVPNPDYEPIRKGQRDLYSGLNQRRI
T1 sequence (P04234 22-171 limits assumed, chain 2 of 4): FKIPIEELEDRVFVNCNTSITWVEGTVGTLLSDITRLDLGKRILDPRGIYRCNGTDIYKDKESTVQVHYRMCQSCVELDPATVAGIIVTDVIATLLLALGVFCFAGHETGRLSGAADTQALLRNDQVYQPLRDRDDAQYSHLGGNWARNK
T1 sequence (P20963 22-164 limits assumed, chain 3 of 4): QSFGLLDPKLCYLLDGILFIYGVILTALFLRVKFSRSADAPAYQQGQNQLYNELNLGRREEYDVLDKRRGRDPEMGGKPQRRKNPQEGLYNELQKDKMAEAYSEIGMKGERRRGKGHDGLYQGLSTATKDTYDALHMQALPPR
T1 sequence (P09693 23-182 limits assumed, chain 4 of 4): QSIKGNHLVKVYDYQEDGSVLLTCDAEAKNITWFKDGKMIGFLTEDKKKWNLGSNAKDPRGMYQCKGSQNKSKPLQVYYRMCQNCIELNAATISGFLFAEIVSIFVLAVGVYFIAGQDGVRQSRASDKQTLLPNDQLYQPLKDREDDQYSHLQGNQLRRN

Binding Ratio (MFI of Treated/MFI of Unstained) [1]: 94
Binding Ratio (MFI of Treated/MFI of Unstained) [2]: 253
EC80, cleaved caspase 3+ cleaved PARP+ HEK293/hFcεR1α/hFcεR1β/hFcεR1γ target cells with activated CD8+ T cells [3]: 0.0613 nM
Maximum percent apoptotic cells, HEK293/hFcεR1α/hFcεR1β/hFcεR1γ target cells with activated CD8+ T cells [3]: 55.8%
600 nM hFcεR1α.MMH Bound (RU) (hFcεR1α.MMH [4]): 40 RU
Kd (hFcεR1α.MMH [4]): 977 nM
koff (hFcεR1α.MMH [4]): 0.0934 s⁻¹
kon (hFcεR1α.MMH [4]): 95600 M⁻¹ s⁻¹
t½ (hFcεR1α.MMH [4]): 7.2 s
600 nM mfFceR1a.MMH Bound (RU) (mfFcεR1α.MMH [5]): 37 RU
Kd (mfFcεR1α.MMH [5]): 520 nM
koff (mfFcεR1α.MMH [5]): 0.0445 s⁻¹
kon (mfFcεR1α.MMH [5]): 85600 M⁻¹ s⁻¹
t½ (mfFcεR1α.MMH [5]): 15.6 s
EC50, decrease of primary human basophils within PBMC with activated CD8+ T cells [6]: 4 nM
Maximum percent basophil decrease, PBMC with activated CD8+ T cells [6]: 90.9%
600 nM hFcεR1α.MMH Bound (RU) (hFcεR1α.MMH [7]): 69 RU
Kd (hFcεR1α.MMH [7]): 274 nM
koff (hFcεR1α.MMH [7]): 0.0212 s⁻¹
kon (hFcεR1α.MMH [7]): 77400 M⁻¹ s⁻¹
t½ (hFcεR1α.MMH [7]): 32.4 s
Binding Ratio (MFI of Treated/MFI of Unstained) [8]: 284
Binding Ratio (MFI of Treated/MFI of Unstained) [9]: 295
600 nM mfFceR1a.MMH Bound (RU) (mfFcεR1α.MMH [10]): 60 RU
Kd (mfFcεR1α.MMH [10]): 256 nM
koff (mfFcεR1α.MMH [10]): 0.0161 s⁻¹
kon (mfFcεR1α.MMH [10]): 62900 M⁻¹ s⁻¹
t½ (mfFcεR1α.MMH [10]): 42 s
EC50 [M], NFAT-luciferase in Jurkat/NFAT-luc with HEK293/hFcεR1α/hFcεR1β/hFcεR1γ cells, 10 nM IgE [11]: 1.1e-09 M
EC50 [M], NFAT-luciferase in Jurkat/NFAT-luc with HEK293/hFcεR1α/hFcεR1β/hFcεR1γ cells, No IgE [11]: 2.3e-10 M
Fold Activation, Jurkat/NFAT-luc with HEK293/hFcεR1α/hFcεR1β/hFcεR1γ cells, 10 nM IgE [11]: 27 fold
Fold Activation, Jurkat/NFAT-luc with HEK293/hFcεR1α/hFcεR1β/hFcεR1γ cells, No IgE [11]: 24 fold
Binding Ratio (MFI of Treated/MFI of Unstained) [12]: 169
B1: bsAb24921D (bispecific antibody, human IgG4 S228P, kappa)
heavy 1: QVQVQESGPRLVKPSETLSLTCTVSGGSMSSYYWIWIRQPPGKELEWIGYIYYSGSTNYNPSLKSRATISVDTSKNQFSLNLNSVTAADTAVYYCARRNNWNYVRAFDIWGQGTMVTVSSASTKGPSVFPLAPCSRSTSESTAALGCLVKDYFPEPVTVSWNSGALTSGVHTFPAVLQSSGLYSLSSVVTVPSSSLGTKTYTCNVDHKPSNTKVDKRVESKYGPPCPPCPAPPVAGPSVFLFPPKPKDTLMISRTPEVTCVVVDVSQEDPEVQFNWYVDGVEVHNAKTKPREEQFNSTYRVVSVLTVLHQDWLNGKEYKCKVSNKGLPSSIEKTISKAKGQPREPQVYTLPPSQEEMTKNQVSLTCLVKGFYPSDIAVEWESNGQPENNYKTTPPVLDSDGSFFLYSRLTVDKSRWQEGNVFSCSVMHEALHNHYTQKSLSLSLGK
heavy 2: EVQLVESGGGLVQPGRSLRLSCAASGFTFDDYSMHWVRQAPGKGLEWVSGISWNSGSIGYADSVKGRFTISRDNAKNSLYLQMNSLRAEDTALYYCAKYGSGYGKFYYYGMDVWGQGTTVTVSSASTKGPSVFPLAPCSRSTSESTAALGCLVKDYFPEPVTVSWNSGALTSGVHTFPAVLQSSGLYSLSSVVTVPSSSLGTKTYTCNVDHKPSNTKVDKRVESKYGPPCPPCPAPPVAGPSVFLFPPKPKDTLMISRTPEVTCVVVDVSQEDPEVQFNWYVDGVEVHNAKTKPREEQFNSTYRVVSVLTVLHQDWLNGKEYKCKVSNKGLPSSIEKTISKAKGQPREPQVYTLPPSQEEMTKNQVSLTCLVKGFYPSDIAVEWESNGQPENNYKTTPPVLDSDGSFFLYSRLTVDKSRWQEGNVFSCSVMHEALHNRFTQKSLSLSPGK
light: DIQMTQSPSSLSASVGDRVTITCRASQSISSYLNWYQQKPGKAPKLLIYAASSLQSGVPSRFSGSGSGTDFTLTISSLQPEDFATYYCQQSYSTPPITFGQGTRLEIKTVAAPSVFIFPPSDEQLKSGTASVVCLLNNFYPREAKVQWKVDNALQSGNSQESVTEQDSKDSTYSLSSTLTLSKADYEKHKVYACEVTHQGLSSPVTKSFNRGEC
notes: IgG4 Fc domain; two distinct heavy chains with a common light chain; also called anti-FcεR1α×CD3 bispecific antibody; FcεR1α × hCD3
